Our source for the median enrichment values is the supplement of paper PMC11502859.
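Further: lentiviral eGFP-IRES-mCherry reporter pool sorted by FACS 96 h post-transduction, gated on mCherry-high cells, Illumina read counts normalized per million, median across four biological replicates.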

The data set has as its system HEK293T. Nature of the data set: median enrichment of reporter reads in eGFP-reduced (low/intermediate) vs eGFP-high sorted cells (eGFP-extension fusion abundance) (ratio); higher = stronger loss of eGFP-fusion protein abundance (more destabilising extension).
As for “QHLPEETPLPTLPERGSLRTGWRRWGPSRAPGALPGMSRPTHPKAGAAAPCCPSPGLGNDDPPKSPSAPQTQGLRPPAPGIRE [FXYD7]”, the median enrichment amounted to 0.759.

In the case of QHLQEEEEKEGTPDWI [GPR158], the median enrichment amounted to 1.29. On to QHLVQQ [IFNA13], for which the median enrichment stood at 0.328. To QHQ [ANKRD6] belongs 0.522; to QHTQNSLTRTISFCKGF [KRR1], 1.62. Next, QHWGRLPHPASGKPVAGHRVVPPVPS [SCLY]: 11; QHYS [C4BPB]: 0.456; “QICIIQAYLVKQTHIMGLGNIYLSKFAITDLGFFPFFEGKFNYIALLFFPLRDSLLGKCFLRTKI [CHMP5]”: 4.31. Consider QIKLAVRNAKSC [RBMX], for which the median enrichment was 6.47. To QIL [TMEM244] belongs 0.849.

Regarding QIQGHK [RILPL2], the median enrichment was found to be 0.367.

With QIRI [TADA1], the median enrichment was 0.507. Regarding QISTNKSKTNSRIPDCPIPI [PTCHD3], the median enrichment turned out to be 2.49. Regarding “QKCGKAFTKSSYCVQHLKFNTEQMQYKCNDSGRTFIILEGL [ZNF736]”, the median enrichment came to 4.28. Next, QKGRAQQCK [IRX2]: 1.1; “QKGSGPGIHVGGRGRGGRREGRGEIHTVDTLTSWPKSLPQDLPDLHGQASYGGVSISFFLFLFPGLRASWGPRFTNSPTPLKL [AQP1]”: 6.27; QKILPSLVVGTDRIHLTQTSSFTDFNYLFLKT [WSB1]: 2.9. As for QKKPL [NFATC2], the median enrichment came to 0.453.

For QKMTQKLEPTKLLTPC [ADGRL3], the median enrichment was 1.01. Next, QKPYEYCEYGKAI [ZNF569]: 0.563. To QKQPQGSINNICQLNLLSSNAKKGEWRVQD [PAPOLA] belongs 2.06; to “QKRMMMTFIIHKQWEVQQCLGADLRRRMIFLSLLTT [MROH9]”, 20.2; to QKVPLANCLEAQHNPKALFR [HIST1H1E], 2.26.

In the case of QLDHDLVQ [TRAT1], the median enrichment was 0.266.

On to QLFLKMAIVYEICISVSLYKF [NUP133], for which the median enrichment worked out at 11.5. To QLFTLFFYIYLYIYIKIGS [CBX3] belongs 10.2; to “QLGAHIKCFILHTWTLKPGCACILKQQSSHSFRQMFSVSEENMFSEEKTFRQMFSEEKKGKLGVGRC [PRAME]”, 9.08. Turning to “QLGPAWKASAPCTHTDRNFRDCGVETGAQALQRVALKL [RAB36]”, the median enrichment amounted to 7.77. QLICYVNLSFAFLFD [DGKB]: the median enrichment turned out to be 13.9. On to QLLVPPSLLVIRFPRLTP [PITRM1], for which the median enrichment was 9.11. Next, QLPMPPQNWLLRVN [TSC22D1]: 4.17; QLRILKRSHGKTS [NBN]: 7.35. To “QLRTLPFFPLSSLPLPFLPIYPFPSSKSTQGEENKMTTQDLVAKILHSKSSFV [FGF12]” belongs 4.18; to “QLSLPPQPGSPALESSVLHAEDAPSLDWSGLLPNDIAQRLWSRHPAEWGPRGCQLGALPLAATLWSGRVLHHQEDPILSSVSC [INAFM1]”, 4.8; to “QLVKTMGVVLTQPPIPQGASGQSFWHCSRIPPSWCVWRVGKAGRDINLEENT [ARHGEF25]”, 6.94. Next, QLYHYSRSSSQHHLLATWDV [GCG]: 16.8; QLYSTKIFKDWFLF [DIS3]: 11.1.

For the substance “QLYVGLSLEYVWSPGLSRLEQQSLLLAYHRD [ZFYVE21]”, the median enrichment was determined as 9.76. Regarding QMTKP [RBFOX1], the median enrichment worked out at 0.233.

Consider QNASVRIKD [BORA], for which the median enrichment turned out to be 0.475. For QNILCTALVISDLD [MALSU1], the median enrichment was found to be 7.03. Next, QNIQVINELCYGIIALLYAG [CC2D2B]: 8.94; QNIYRVTKNKQSKKKTVY [LRRC4C]: 31.9. On to QNLREPVV [CEP89], for which the median enrichment is 0.464. Next, QNNVSYFSIKDHLKLLIPNIN [DMAC2L]: 12.2; QNRIEQNRIE [PCSK5]: 0.813.

With QNTFLL [CFAP97], the median enrichment was 0.56. Next, “QPDKRNKLFFLMDCSKRSLKIPWLSTYKTYYLNKEEYYVNIHIKNFGGFEKNELYIYKSTLKTNFNCLKQLF [NLGN1]”: 24; “QPETGGSPPARSGASSCQSSWCYPLNPSAATATVGLRVSEQERKDKLFVVPTMLRFGNPGVFPGGLRKQSL [TNFAIP3]”: 4.84. Turning to QPGT [ZNF445], the median enrichment was determined as 1.04.

As to QPHGAVLLMLEAS [ESPL1], the median enrichment is 6.52. With QPKTRGSDLC [EPC2], the median enrichment was determined as 0.415. Turning to “QPPAILPHPPPSPPVSTWSALPHPPPTELGCITFFHLKERSRF [MROH5]”, the median enrichment amounted to 4.47. Turning to “QPPARQRGHRRASPECRPWVAGPGSLVPPGGHRHRLAWQAGPLCHPLLGACRPFPSTPQVFQALLPQFPKWNHLTSAAPDLPG [SECTM1]”, the median enrichment came out at 4.68. To “QPSSCKAIAKQGGSLQSMPGDYVSQGGPMGMSMAQPSYTPPQMTPHPTQLRHGPPMHSYLPSHPHHPAMMMHGGPPTHPGMTM [MEIS2]” belongs 3.91; to “QPTGDPDLILNRRRLRDSRRHRSCPQWTPMNPSQPGPLTKTTRTSWELWDSLDSAVKDD [LILRB5]”, 1.48.

On to QPWGWTVDPTSLREGGMAGCEDNSS [POLR3H], for which the median enrichment came out at 0.421.

QPWQ [ADGRL3]: the median enrichment is 0.354. Next, “QPWSITLPPSPGTTGPITFECCIWISRCLCGSLPHFSWT [UBE2Q1]”: 7.69. QQFSHFLHLSDRTHHLCLP [ZDHHC15]: the median enrichment was 20.5. For QQLRLHQRQHTKKL [BCAS3], the median enrichment stood at 1.16. With QQQ [Gln03], the median enrichment is 0.325. As for QQQQ [Gln04], the median enrichment is 0.501. As for QQQQQ [Gln05], the median enrichment was determined as 0.381. For QQQQQQ [Gln06], the median enrichment amounted to 0.198. Next, QQQQQQQ [Gln07]: 0.347; QQQQQQQQ [Gln08]: 0.342. For QQQQQQQQQ [Gln09], the median enrichment came out at 0.104. On to QQQQQQQQQQ [Gln10], for which the median enrichment turned out to be 0.317. To QQQYYRGLNNTTKSIWIA [NCAM2] belongs 25; to QRCEGIGETLGWLVMVSIAGHQKLDS [B4GALNT2], 4.77; to QRFSSEKNLCLIF [PHACTR3], 9.78. Next, “QRHASFTISGKRTHCAYSDCRVYKRQPFGYYCCKVQILQASSDICIYCHYCLWKKQGIKVPVHLMYYFL [NEUROD1]”: 14.6. Next, QRHGVLGGLMGTGACIFCWGMKLITLL [AGBL4]: 4.93; QRKKRKTALGLAYGLRGCCC [WEE2]: 6.66. Take QRLAPACTPAPAAGSPQSQPFGTVLTL [ABCG4]: the median enrichment is 28.4. To QRLDMLSPNEPLSSPGEGR [ISX] belongs 0.656. To “QRLMQERCEGLRAGDCAILKPPLDLRTPRVGTSRVVGQPGSLYCGFSEA [MEIS3]” belongs 6.79.
